Assay results published in patent US12337037B2, “Taxol conjugate compounds, pharmaceutical compositions comprising the same, and methods for their use” (N1 Life, Inc, priority 2021, dated 2025).

Tests used:
[1] = Stability in plasma, rat; assay type: in vitro ADME; conditions: for half-life: 37° C., read-out: Mean T1/2 (converted)
Description: Working solutions of test compounds were prepared in PBS (pH 7.4). Propantheline was used as positive control for human, monkey, dog and mouse plasma in the assay. Mevinolin was used as positive control for rat plasma in this assay. 1 mM propantheline working solution was prepared in acetonitrile. 1 mM mevinolin working solution was prepared in DMSO. Incubation buffer of 475 μL plasma for each cell was added into the incubation plate and pre-warmed at 37° C. for 15 minutes. After the pre-incubation, 25 μL of working solution (test compounds or control compounds) was spiked to plasma. For Compound 5 and Compound 3, the final concentration of organic concentration was 0%. For Taxol, the final concentration of organic solvents was 0.25%. The assay was performed in duplicate. The reaction samples were incubated at 37° C. Aliquots of 50 μL were taken from the reaction samples at 0, 0.25, 0.5, 1, 2, 4, 6, 8 and 24 hours. The reactions were stopped by the addition of 450 μL of ice-cold quench solution (methanol with 2% FA containing internal standards). All samples were vortexed for 10 minutes, following by centrifugation at 3,220 g for 30 minutes to precipitate proteins. 100 μL of the supernatant from each well was transferred to a new plate. The supernatant was diluted with ultrapure water. Samples were analyzed by LC-MS/MS. All calculations were carried out using Microsoft Excel. Peak area ratios were determined from extracted ion chromatograms. Percent compounds remaining at each time point were calculated by the following equation: Remaining Percentaget min(%)=Peak Area Ratiot min/Peak Area Ratio0 min×100
Peak Area Ratiot min is peak area ratio of control and test compounds at t min; and
Peak Area Ratio0 min is peak area ratio of control and test compounds at zero time point.
The slope value, k, was determined by linear regression of the natural logarithm of the remaining percentage of the parent drug vs. incubation time curve.
The in vitro half-life (in vitro t1/2) was determined from the slope value: in vitro t1/2=(0.693/k)

[2] = Safety: animal body weight change after dosing, tumor bearing mice; conditions: for Weight on day 21 (MEAN ± SD) / Weight on day 0 (MEAN ± SD): IP Q5D (day 0, 5, 10); for Weight on day 21 (MEAN ± SD) / Weight on day 0 (MEAN ± SD) / Weight gain (%): Taxol 10 mg/kg; for Weight on day 0 (MEAN ± SD): baseline; for Weight gain (%): day 0 to day 21, IP Q5D
Source text: Animals: Female athymic nude mice were used in this study. The experimental mice were purchased from Shibefu (Beijing) Biotechnology Co., Ltd. (QC number: SCXK Beijing 2019-0010) and maintained in a High Efficiency Particulate Air Filter (HEPA) filtered environment with cages, food and bedding sterilized by irradiation or autoclaving.
Establishment of peritoneal disseminated metastasis model of human ovarian cancer: Human ovarian cancer (SKOV-3-GFP) cells in logarithmic growth period were digested with 0.25% trypsin, rinsed with phosphate buffer (PBS) twice, centrifuged, and suspended with serum-free RPMI1640 medium. Cell suspension (6×10^6/120 μL/mouse) was injected into the peritoneal cavity of each experimental mouse for the establishment of peritoneal disseminated metastasis model of human ovarian cancer.
Groups, testing articles and treatment protocols: Day 4 after cell inoculation, all mice were subjected to systemic imaging using FluorVivo Model-100 (INDEC biosystems, CA, USA). Mice with a small deviation from average tumor load were enrolled in the study. All animals were randomly allocated to the different study groups, 6 mice in each group. Dosing schedule was Q5D (day 0, 5, 10), dosing volume was 10 μl/g, and administration route was intraperitoneal injection. Each dose of Compound 3 or Compound 5 was 9.6 mg/kg (equimolar to 2.5 mg/kg Taxol) and each dose of Taxol was 10 mg/kg. Taxol working solutions were prepared from 6 mg/mL stock solution, while Compounds were dissolved in PBS (pH 7.4) and filtered through 0.22 μm filter.
Monitoring of the experimental mice: During the period of the study, all experimental mice were checked daily for mortality or signs of morbidity. Images of tumor progression were acquired three times a week during the period of the study with the FluorVivo imaging system, Model 100/Mag (INDEC BioSystems, CA, USA). The body weights of the mice were measured three times a week during the period of the study.
Study endpoint: On Day 21 after administration, animals were euthanized by inhalation of excessive anesthetics. All tumors were exposed for imaging (under the same exposure conditions), after which the tumors were removed and weighed with an electronic balance (Sartorius BS 124 S, Germany). The tumor samples were then stored in formalin solution.
Statistical methods used in efficacy evaluation: Comparison of body weights and tumor burdens in different groups were analyzed using EXCEL t-test with an α=0.05 (two-sided).

[3] = Table 7A (Compound 3 set), Compd 3 9.6 mg/kg
[4] = separate experiment, 38.4 mg/kg, 3 Q5D doses, tumor bearing mice
[5] = Table 7B (Compound 5 set), Compd 5 9.6 mg/kg

| Structure (SMILES) | Percent Increase of T1/2, Compound 3 over Compound 5 [1] | half-life [1] | body weight higher compared with the vehicle (PBS) group ([2]; 9.6 mg/kg IP Q5D, end of experiment) | Weight on day 21 (MEAN ± SD) [2, 3] | Weight on day 0 (MEAN ± SD) [2, 3] | Weight gain (%) [2, 3] | Weight gain (%) ([2]; Table 7A (Compound 3 set), Compd 3 9.6 mg/kg, listed as Compd 3) | animal deaths [2, 4] | body weight change on Day 21 [2, 4] | Weight on day 21 (MEAN ± SD) [2, 5] | Weight on day 0 (MEAN ± SD) [2, 5] | Weight gain (%) [2, 5] | Weight gain (%) ([2]; Table 7B (Compound 5 set), Compd 5 9.6 mg/kg, listed as Compd 5) | clinical signs after administration [2, 4] |
| --- | --- | --- | --- | --- | --- | --- | --- | --- | --- | --- | --- | --- | --- | --- |
| CC(=O)N[C@@H](CSSCCCC(=O)OC(C(=O)O[C@H]1C[C@@]2(O)[C@@H](OC(=O)c3ccccc3)[C@@H]3[C@]4(OC(C)=O)CO[C@@H]4C[C@H](O)[C@@]3(C)C(=O)[C@H](OC(C)=O)C(=C1C)C2(C)C)[C@@H](NC(=O)c1ccccc1)c1ccccc1)C(=O)N[C@H](CCCNC(=N)N)C(=O)N[C@H](CCCNC(=N)N)C(=O)N[C@H](CCCNC(=N)N)C(=O)N[C@H](CCCNC(=N)N)C(=O)N[C@H](CCCNC(=N)N)C(=O)N[C@H](CCCNC(=N)N)C(=O)N[C@H](CCCNC(=N)N)C(=O)N[C@H](CCCNC(=N)N)C(N)=O (stereo partly drawn) [Compound 3, Ac-L-Cysteine (paclitaxel-4-mercaptobutanoate)-D-Arginine8-NH2] | 50% | 27 min | about 24% | 18.5 ± 1.4 | 16.3 ± 1.0 | about 13% | 13% | no animal deaths were reported | +22.1% |  |  |  |  |  |
| CC(=O)N[C@H](CSSCCCC(=O)O[C@@H](C(=O)O[C@H]1C[C@@]2(O)[C@@H](OC(=O)c3ccccc3)[C@@H]3[C@]4(OC(C)=O)CO[C@@H]4C[C@H](O)[C@@]3(C)C(=O)[C@H](OC(C)=O)C(=C1C)C2(C)C)[C@@H](NC(=O)c1ccccc1)c1ccccc1)C(=O)N[C@H](CCCNC(=N)N)C(=O)N[C@H](CCCNC(=N)N)C(=O)N[C@H](CCCNC(=N)N)C(=O)N[C@H](CCCNC(=N)N)C(=O)N[C@H](CCCNC(=N)N)C(=O)N[C@H](CCCNC(=N)N)C(=O)N[C@H](CCCNC(=N)N)C(=O)N[C@H](CCCNC(=N)N)C(N)=O [Compound 5, Ac-D-Cysteine (paclitaxel-4-mercaptobutanoate)-D-Arginine8-NH2] |  | 18 min |  |  |  |  |  | One mouse in this group was found dead on Day 18 | −2% | 16.9 ± 1.1 | 16.9 ± 0.6 | no change in body weight | 0% | recumbent and their voluntary activities were reduced |
